Assay results as given in patent publication US20180044401A1.

Assays:
[1] = molecular target: IgG-Fc of anti-TNFα monoclonal antibody (Remicade); test: SPR Biacore, Fc immobilized at about 10000 RU, response 1 minute after addition
[2] = molecular target: IgG-Fab prepared from anti-TNFα monoclonal antibody (Remicade); test: SPR Biacore, Fab immobilized at about 10000 RU, response 1 minute after addition

- inclination of approximate curve (binding response against peptide concentration) [1]: 0.9
- inclination of approximate curve (binding response against peptide concentration) [2]: 0.1
Substance: peptide having the amino acid sequence of β1 domain of Protein G (SEQ ID NO: 32) (from UniProt P06654 228-282)
